Consider 13 molecules from patent publication US10294487B2, “Methods and compositions involving ALS variants with native substrate preference” (E I DU PONT DE NEMOURS AND COMPANY, priority 2012, dated 2019).

Changes are numbered by the printed parent chain. Numbers in names are those of the source.

The test system of one data set is ALS. Particulars: cited from earlier work.
Data set [1] concerns G. max ALS1 protein. Kind of data set: Colorimetric ALS kinetic assay (Km, kcat) with pyruvate as substrate. Format: biochemical, Glycine max. The protocol:
A survey of known ALS (AcetoLactate Synthase) gene variants (Table 2) was performed, and a number of ALS variants were selected for kinetic evaluation based on breadth and strength of insensitivity to ALS-inhibitor herbicides as well as kinetic activity parameters including the ratio of substrate preferences. The selected ALS gene variants (Table 3) were generated by PCR mediated site-directed mutagenesis. Finnzymes PHUSION® DNA polymerase (Cat. No. F-530S) was used for the PCR reactions, following the instructions for recommended temperatures and cycles in the PHUSION® protocol. Some mutagenesis reactions were assisted by the use of IN-FUSION® enzyme (Clontech Cat. No. 639620) to circularize a linear plasmid with the mutation located within the 15 nucleotide overlapping ends, via recombination following the manufacturer's protocol for primer design and reaction conditions. The ALS genes, beginning with encoded amino acids SISK, (S48 to K51 in the G. max ALS1 protein (SEQ ID NO:1) corresponding to the mature protein N-terminus of the chloroplast localized enzyme), were cloned into the PMAL® E. coli expression vector (New England Biolabs) to express ALS as a fusion protein with a Maltose-Binding Protein (MBP) at the N-terminus with a thrombin site for cleavage and a His-6 tag for affinity purification. All in vitro protein characterization described in the examples was carried out with the isolated proteins after cleavage from the His-MBP fusion partner.
Km and Kcat determinations for recombinant ALS variants (with respect to pyruvate as the substrate) were performed using a colorimetric assay. ALS assays were carried out in 96-well microplates with 150 ul reaction containing 25 mM potassium phosphate, 0.2 mg/ml BSA, 15 mM MgCl2, 0.7 mM TPP, 28 uM FAD and 0-100 mM sodium pyruvate. Reactions were initiated by the addition of ALS enzyme to a final amount of 0.8 ug/well. Parameters for Km and Vmax were determined by fitting the velocity versus substrate concentration data to a rectangular hyperbola using GraphPad Prism software. Kcat values were determined from Vmax based on protein concentration in the reactions.

The subject of data set [2] is G. max ALS1 protein. In words: Substrate specificity ratio (Rf), pyruvate versus 2-ketobutyrate, LC-MS of reduced products. Particulars: ratio of [pyruvate] to [2-ketobutyrate] giving equal rates of acetolactate and acetohydroxybutyrate formation; 25 mM pyruvate. Format: biochemical, Glycine max. An excerpt:
The “substrate specificity ratio”, or “Rf”, characterizes the specificity of the ALS enzyme for AHB formation relative to AL formation (Gollop et al. (1989) Biochemistry 28:6310-6317). Rf is the ratio of [pyruvate] to [2-ketobutyrate] that results in equal rates of formation of acetolactate and acetohydroxybutyrate. Rf is a constant at all substrate concentrations. The substrate specificity ratio is ˜114 for the wild type Glycine max ALS1 enzyme (SEQ ID NO:1) compared to ˜3 for the highly resistant allele (HRA) double mutant variant (SEQ ID NO: 10) of the Glycine max ALS1. The soybean HRA sequence is disclosed, for example, in WO2007/024782, herein incorporated by reference.
Substrate preference was determined using the assay described in Example 3; however, the assay was conducted using a constant concentration of pyruvate (25 mM) and varying concentrations of the second substrate, 2-ketobutyrate. Each reaction involving a specific ratio of pyruvate to 2-ketobutyrate, after a set period of time, was quenched by addition of sodium borohydride (7-fold excess) to form the reduced adducts of the products of the two substrates namely; reduced acetolactate for the reaction with pyruvate and reduced aceto hydroxybutyrate for the 2-ketobutyrate reaction. The relative amounts of the two reduced products was determined by first, chromatographic separation using a 4.6×250 mm dC18 column (Atlantis) equilibrated with a 0.1% formic acid solution and subsequent elution using a methanol gradient at 0.7 ml/min, followed by detection using a Thermo FINNIGAN® LTQ® Mass Spectrometer (MS). The products of the two reactions were quantified by integration of the MS signals. The % of the amount of each of the reduced products was then plotted versus the concentration of 2-ketobutyrate. As the 2-ketobutyrate amount increased there was a consequent increase in reduced acetohydroxybutyrate (AHB) and decrease in reduced acetolactate (AL). […] The substrate specificity ratio was ˜114 for the wild type enzyme compared to 3 for the highly resistant allele (HRA) double mutant ALS variant (SEQ ID NO: 10).

B1: P197S: Chemical mutagenesis of A. thaliana plants; position P197, 178 (protein, UniProt P17597 56-670, looked up, variant P197S)
Acetolactate synthase, …: SSSPSSISAVLNTTTNVTTTPSPTKPTKPETFISRFAPDQPRKGADILVEALERQGVETVFAYPGGASMEIHQALTRSSSIRNVLPRHEQGGVFAAEGYARSSGKPGICIATSGPGATNLVSGLADALLDSVPLVAITGQVSRRMIGTDAFQETPIVEVTRSITKHNYLVMDVEDIPRIIEEAFFLATSGRPGPVLVDVPKDIQQQLAIPNWEQAMRLPGYMSRMPKPPEDSHLEQIVRLISESKKPVLYVGGGCLNSSDELGRFVELTGIPVASTLMGLGSYPCDDELSLHMLGMHGTVYANYAVEHSDLLLAFGVRFDDRVTGKLEAFASRAKIVHIDIDSAEIGKNKTPHVSVCGDVKLALQGMNKVLENRAEELKLDFGVWRNELNVQKQKFPLSFKTFGEAIPPQYAIKVLDELTDGKAIISTGVGQHQMWAAQFYNYKKPRQWLSSGGLGAMGFGLPAAIGASVANPDAIVVDIDGDGSFIMNVQELATIRVENLPVKVLLLNNQHLGMVMQWEDRFYKANRAHTFLGDPAQEDEIFPNMLLFAAACGIPAARVTKKADLREAIQTMLDTPGPYLLDVICPHQEHVLPMIPSGGTFNDVITEGDGRIKY
For the molecule B1, the “Resistance pattern, I50 fold increase: IP” value with ALS (IP (abbreviation not defined)) is given as “IP, 2 fold”. Moreover, the “Resistance pattern, I50 fold increase: CS” value with ALS (chlorsulfuron) is reported as “CS, 1000 fold”.

B2: GM-ALS_P178S_A186V: Glycine Max ALS1 with P→S at position 178 and A→V at position 186 (protein)
chain: MAATASRTTRFSSSSSHPTFPKRITRSTLPLSHQTLTKPNHALKIKCSISKPPTAAPFTKEAPTTEPFVSRFASGEPRKGADILVEALERQGVTTVFAYPGGASMEIHQALTRSAAIRNVLPRHEQGGVFAAEGYARSSGLPGVCIATSGPGATNLVSGLADALMDSVPVVAITGQVSRRMIGTDVFQETPIVEVSRSITKHNYLILDVDDIPRVVAEAFFVATSGRPGPVLIDIPKDVQQQLAVPNWDEPVNLPGYLARLPRPPAEAQLEHIVRLIMEAQKPVLYVGGGSLNSSAELRRFVELTGIPVASTLMGLGTFPIGDEYSLQMLGMHGTVYANYAVDNSDLLLAFGVRFDDRVTGKLEAFASRAKIVHIDIDSAEIGKNKQAHVSVCADLKLALKGINMILEEKGVEGKFDLGGWREEINVQKHKFPLGYKTFQDAISPQHAIEVLDELTNGDAIVSTGVGQHQMWAAQFYKYKRPRQWLTSGGLGAMGFGLPAAIGAAVANPGAVVVDIDGDGSFIMNVQELATIRVENLPVKILLLNNQHLGMVVQWEDRFYKSNRAHTYLGDPSSESEIFPNMLKFADACGIPAARVTKKEELRAAIQRMLDTPGPYLLDVIVPHQEHVLPMIPSNGSFKDVITEGDGRTRY
modifications: ALS1 variant P178S A186V
In general, Km refers to the substrate concentration at which the rate is half of its maximum. Usually kcat stands for the number of substrate molecules converted per active site and unit of time at saturation. As to B2, in the data set with G. max ALS1 protein [1], the Km was 21 mM and the kcat is 0.45 s⁻¹. Also, the “Substrate specificity ratio (Rf)” value with G. max ALS1 protein [2] is 29.0.

B3: GM-ALS_W555L: Glycine Max ALS1 variant with a W→L mutation at position 555 (protein)
chain: B2 chain with S178P, V186A, W555L
modifications: ALS1 variant W555L
Turning to B3, in the data set with G. max ALS1 protein [1], the Km is 1.8 mM and the kcat stood at 1.08 s⁻¹. Besides, the “Substrate specificity ratio (Rf)” value in the data set with G. max ALS1 protein [2] is recorded as 2.6.

B4: GM-ALS_A186V: Glycine Max ALS1 variant with a A→V mutation at position 186 (protein)
chain: B2 chain with S178P
modifications: ALS1 variant A186V
As to B4, in the data set with G. max ALS1 protein [1], the Km turned out to be 14 mM and the kcat turned out to be 0.467 s⁻¹. The “Substrate specificity ratio (Rf)” value with G. max ALS1 protein [2] is given as 40.3.

B5: GM-ALS_K237Q: Glycine Max ALS1 variant with a K→Q mutation at position 237 (protein)
chain: B2 chain with S178P, V186A, K237Q
modifications: ALS1 variant K237Q
Take B5: in the data set with G. max ALS1 protein [1], the Km worked out at 20 mM and the kcat was found to be 1.35 s⁻¹. For the same molecule, the “Substrate specificity ratio (Rf)” value in the data set with G. max ALS1 protein [2] came to 100.0.

B6: GM-ALS_F559D: Glycine Max ALS1 variant with a F→D mutation at position 559 (protein)
chain: B2 chain with S178P, V186A, F559D
modifications: ALS1 variant F559D
Take B6: in the data set on G. max ALS1 protein [1], the Km came out at 20 mM and the kcat was 0.417 s⁻¹. For the same molecule, in the data set with G. max ALS1 protein [2], the “Substrate specificity ratio (Rf)” value is listed as 96.0.

B7: GM-ALS_K237F: Glycine Max ALS1 variant with a K→F mutation at position 237 (protein)
chain: B2 chain with S178P, V186A, K237F
modifications: ALS1 variant K237F
Regarding B7, in the data set on G. max ALS1 protein [1], the Michaelis-Menten constant (Km) stood at 27 mM and the kcat turned out to be 2.17 s⁻¹. Also, the “Substrate specificity ratio (Rf)” value in the data set with G. max ALS1 protein [2] came to 100.0.

B8: GM-ALS_P178S_D357N: Glycine Max ALS1 with P→S at position 178 and D→N at position 357 (protein)
chain: B2 chain with V186A, D357N
modifications: ALS1 variant P178S D357N
For B8, in the data set with G. max ALS1 protein [1], the Km was determined as 4 mM and the kcat was found to be 1.82 s⁻¹. Besides, the “Substrate specificity ratio (Rf)” value in the data set with G. max ALS1 protein [2] amounted to 49.0.

B9: GM-ALS_P178S_F559D: Glycine Max ALS1 with P→S at position 178 and F→D at position 559 (protein)
chain: B2 chain with V186A, F559D
modifications: ALS1 variant P178S F559D
Regarding B9, in the data set on G. max ALS1 protein [1], the Km amounted to 40 mM and the kcat was determined as 0.833 s⁻¹. In addition, in the data set with G. max ALS1 protein [2], the “Substrate specificity ratio (Rf)” value is reported as 89.0.

B10: GM-ALS_D357E: Glycine Max ALS1 variant with a D→E mutation at position 357 (protein)
chain: B2 chain with S178P, V186A, D357E
modifications: ALS1 variant D357E
Regarding B10, in the data set on G. max ALS1 protein [1], the Km came out at 3 mM and the kcat was 2.8 s⁻¹. In the data set on G. max ALS1 protein [2], the “Substrate specificity ratio (Rf)” value was found to be 67.6.

B11: GM-ALS_F559L: Glycine Max ALS1 variant with a F→L mutation at position 559 (protein)
chain: B2 chain with S178P, V186A, F559L
modifications: F559L
B11: in the data set on G. max ALS1 protein [1], the Km is 6 mM and the kcat was 1.78 s⁻¹. For the same molecule, the “Substrate specificity ratio (Rf)” value in the data set on G. max ALS1 protein [2] is 62.5.

B12: GM-ALS_A186D: Glycine Max ALS1 variant with a A→D mutation at position 186 (protein)
chain: B2 chain with S178P, V186D
modifications: ALS1 variant A186D
On to B12, for which, in the data set on G. max ALS1 protein [1], the Km amounted to 35 mM and the kcat amounted to 0.15 s⁻¹. Besides, the “Substrate specificity ratio (Rf)” value in the data set on G. max ALS1 protein [2] is 21.7.

B13: GM-ALS_D357N: Glycine Max ALS1 variant with a D→N mutation at position 357 (protein)
chain: B2 chain with S178P, V186A, D357N
modifications: ALS1 variant D357N
In the case of B13, in the data set with G. max ALS1 protein [1], the Km was found to be 6 mM and the kcat came out at 2.5 s⁻¹. For the same molecule, the “Substrate specificity ratio (Rf)” value in the data set with G. max ALS1 protein [2] stood at 72.0.
